Biological target: GST-Grb2(SH2) SH2 domain (UniProt P62993)
Assay: GST-Grb2(SH2) pull-down, anti-HA blot
Conditions: reference: HA-ShcWT; sites Y317

binding against the reference: weaker
Substance: HA-tagged Shc (52 kDa isoform) (from UniProt P29353-2) HA-ShcY317F

From paper PMC2364237
